Measured values as given in PMC4072508, “Genome-Wide Prediction and Validation of Peptides That Bind Human Prosurvival Bcl-2 Proteins” (PLoS Computational Biology, 2014).

T1: Bcl-w, Q92843
T1 chain: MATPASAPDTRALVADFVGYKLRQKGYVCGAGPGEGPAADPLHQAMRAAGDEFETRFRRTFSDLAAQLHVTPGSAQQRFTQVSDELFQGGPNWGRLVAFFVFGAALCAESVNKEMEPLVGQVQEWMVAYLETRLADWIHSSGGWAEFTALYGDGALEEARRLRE

T2: Bfl-1, Q16548
T2 chain: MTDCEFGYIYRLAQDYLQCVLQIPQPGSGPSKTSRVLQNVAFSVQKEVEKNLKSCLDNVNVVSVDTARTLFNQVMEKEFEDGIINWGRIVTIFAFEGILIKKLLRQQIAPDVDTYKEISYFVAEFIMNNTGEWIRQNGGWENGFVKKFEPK

T3: Mcl-1, Q07820
T3 chain: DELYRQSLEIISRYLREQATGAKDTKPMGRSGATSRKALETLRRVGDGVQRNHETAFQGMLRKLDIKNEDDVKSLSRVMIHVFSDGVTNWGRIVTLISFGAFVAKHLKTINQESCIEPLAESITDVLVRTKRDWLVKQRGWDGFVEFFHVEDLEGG

B1: PXT1 (peptide)
chain: EEIIHKLAMQDRHIGDNIDHRMVRED
B2: DMD (peptide)
chain: IGQRQTVVRTLNATGEEIIQQSSKTD
B3: NRN1L (peptide)
chain: DTIYQGFAECLIRLGDSMGRGGELET
B4: DMD (peptide)
chain: EERAQNVTRLLRKQAEEVNTEWEKLN
B5: APBA1 (peptide)
chain: EVKQSMSSQSLDKAAEDMPEAEQDLE
B6: INADL (peptide)
chain: GFANHDVVEVLRNAGQVVHLTLVRRK
B7: MTA3 (peptide)
chain: FYRRRDISNTLIMLADKHAKEIEEES
B8: C8orf37 (peptide)
chain: TNISWRACDHLRCIACDFLVVSYDDY
B9: PLCD4 (peptide)
chain: TIRNGHDSELLRSLAEELPLEQGFTI
B10: ATP6AP2 (peptide)
chain: RDASKILVDALQKFADDMYSLYGGNA
B11: CLU (peptide)
chain: CSTNNPSQAKLRRELDESLQVAERLT
B12: RAPGEF2 (peptide)
chain: FEKLRMIAKEIRHVGRMASVNMDPAL
B13: NCKAP1 (peptide)
chain: RIEERKAIIGLYNYAHEMTHGASDRE
B14: CDH23 (peptide)
chain: AEHEDDLPENLSEIADLWNSPTRTHG
B15: PSMC1 (peptide)
chain: LGDGPKLVRELFRVAEEHAPSIVFID
B16: USP5 (peptide)
chain: MVLDPSLAEHLSHFGIDMLKMQKTDK
B17: USP36 (peptide)
chain: AIKPVSFIRDLKKIARHFRFGNQEDA
B18: MOV10L1 (peptide)
chain: FSSDAVTSRVLLNVGQEVIAVVEENK

Molecular target: Bcl-2, P10415
Sequence (P10415 1-217): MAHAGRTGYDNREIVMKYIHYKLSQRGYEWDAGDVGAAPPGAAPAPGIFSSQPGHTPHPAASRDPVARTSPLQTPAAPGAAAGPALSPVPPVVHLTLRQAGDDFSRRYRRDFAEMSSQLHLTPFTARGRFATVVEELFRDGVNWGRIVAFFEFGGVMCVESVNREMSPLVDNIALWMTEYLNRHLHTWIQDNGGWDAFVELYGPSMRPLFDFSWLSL
Experiment: peptide SPOT array, c-Myc-tagged receptor at 1 uM or 100 nM, anti-c-Myc-Cy3

SPOT signal as a fraction of Bim BH3's signal on the same receptor and array	Binder
0.01	B1
0.01	B2
0.01	B3
0.01	B4
0.01	B5
0.12	B6
0.03	B7
0.01	B8
0.01	B9
0.01	B10
0.01	B11
0.1	B12
0.02	B13
0.01	B14
0.01	B15
0.02	B16
0.19	B17
0.01	B18

Molecular target: T1, Bcl-w, Q92843
Experiment: as above

SPOT signal as a fraction of Bim BH3's signal on the same receptor and array	Binder
0.02	B1
0.02	B2
0.03	B3
0.04	B4
0.02	B5
0.31	B6
0.09	B7
0.15	B8
0.01	B9
0.05	B10
0.02	B11
0.18	B12
0.03	B13
0.02	B14
0.02	B15
0.03	B16
0.75	B17
0.02	B18

Molecular target: Bcl-xL, Q07817
Sequence (Q07817 1-209): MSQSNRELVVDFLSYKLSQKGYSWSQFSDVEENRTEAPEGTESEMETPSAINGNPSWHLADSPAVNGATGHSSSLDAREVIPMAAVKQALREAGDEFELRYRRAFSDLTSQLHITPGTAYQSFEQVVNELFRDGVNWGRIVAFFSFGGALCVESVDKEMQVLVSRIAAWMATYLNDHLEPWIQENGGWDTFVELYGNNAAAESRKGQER
Experiment: as above

SPOT signal as a fraction of Bim BH3's signal on the same receptor and array	Binder
0.02	B1
0.03	B2
0.035	B3
0.04	B4
0.02	B5
0.33	B6
0.15	B7
0.08	B8
0.02	B9
0.03	B10
0.03	B11
0.19	B12
0.04	B13
0.02	B14
0.04	B15
0.07	B16
0.61	B17
0.03	B18

Molecular target: T2, Bfl-1, Q16548
Experiment: as above

SPOT signal as a fraction of Bim BH3's signal on the same receptor and array	Binder
0.02	B1
0.03	B2
0.02	B3
0.04	B4
0.02	B5
0.38	B6
0.08	B7
0.02	B8
0.02	B9
0.02	B10
0.02	B11
0.38	B12
0.03	B13
0.01	B14
0.03	B15
0.07	B16
0.65	B17
0.02	B18

Molecular target: T3, Mcl-1, Q07820
Experiment: as above

SPOT signal as a fraction of Bim BH3's signal on the same receptor and array	Binder
0.03	B1
0.02	B2
0.17	B3
0.02	B4
0.02	B5
0.34	B6
0.07	B7
0.08	B8
0.02	B9
0.02	B10
0.02	B11
0.13	B12
0.03	B13
0.02	B14
0.04	B15
0.04	B16
0.39	B17
0.02	B18
